From publication PMC2173821 (The Journal of Cell Biology, 2002)

B1: His-tagged wild-type human BAF, recombinant (natural protein, UniProt O75531 1-89, looked up)
chain: MTTSQKHRDFVAEPMGEKPVGSLAGIGEVLGKKLEERGFDKAYVVLGQFLVLKKDEDLFREWLKDTCGANAKQSRDCFGCLREWCDAFL
B2: His-tagged human BAF mutant 14A, recombinant (natural protein, UniProt O75531 1-89, looked up)
chain: MTTSQKHRDFVAEAMGEKPVGSLAGIGEVLGKKLEERGFDKAYVVLGQFLVLKKDEDLFREWLKDTCGANAKQSRDCFGCLREWCDAFL
B3: His-tagged human BAF mutant 41E, recombinant (natural protein, UniProt O75531 1-89, looked up)
chain: MTTSQKHRDFVAEPMGEKPVGSLAGIGEVLGKKLEERGFDEAYVVLGQFLVLKKDEDLFREWLKDTCGANAKQSRDCFGCLREWCDAFL
B4: His-tagged human BAF mutant 47E, recombinant (natural protein, UniProt O75531 1-89, looked up)
chain: MTTSQKHRDFVAEPMGEKPVGSLAGIGEVLGKKLEERGFDKAYVVLEQFLVLKKDEDLFREWLKDTCGANAKQSRDCFGCLREWCDAFL
B5: His-tagged human BAF mutant 53E, recombinant (natural protein, UniProt O75531 1-89, looked up)
chain: MTTSQKHRDFVAEPMGEKPVGSLAGIGEVLGKKLEERGFDKAYVVLGQFLVLEKDEDLFREWLKDTCGANAKQSRDCFGCLREWCDAFL

Biological target: the molecule itself
Assay: SEC

Row | Protein | stoichiometry N
1 | B1 | 2
2 | B2 | 2
3 | B3 | 2
4 | B4 | 2
5 | B5 | 2
